Results reported in US20180155451A1 (published 2018).

T1: FcγRIIa R (human, UniProt P12318 34-217)
T1 construct: extracellular domain; also called FcgRIIa R type; 2aR
T1 sequence (looked up): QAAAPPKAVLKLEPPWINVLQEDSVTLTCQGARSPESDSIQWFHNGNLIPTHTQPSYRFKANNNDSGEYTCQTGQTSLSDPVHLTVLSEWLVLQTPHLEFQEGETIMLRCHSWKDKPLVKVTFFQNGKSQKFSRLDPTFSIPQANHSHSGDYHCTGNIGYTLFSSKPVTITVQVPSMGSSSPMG


biological target: T1, FcγRIIa R; assay: SPR Biacore; vs GpH7-A5/GpH7-B3/GpL16-k0 =100

Binder | He/Con_2aR
GpH7-A5/GpH7-B3 variant N325_20W/GpL16-k0 (antibody, human IgG1, kappa, also called He Ab N325_20W) heavy 1: not shown heavy 2: not shown light: DIVMTQSPLSLPVTPGEPASISCQASESLVHSNRNTYLHWYLQKPGQSPQLLIYKVSNRFSGVPDRFSGSGSGTDFTLKISRVEAEDVGVYYCSQNTHVPPTFGQGTKVEIERTVAAPSVFIFPPSDEQLKSGTASVVCLLNNFYPREAKVQWKVDNALQSGNSQESVTEQDSKDSTYSLSSTLTLSKADYEKHKVYACEVTHQGLSSPVTKSFNRGEC | 134 % of control
GpH7-A5/GpH7-B3 variant P238_03V/GpL16-k0 (antibody, human IgG1, kappa, also called He Ab P238_03V) heavy 1: not shown heavy 2: not shown light: DIVMTQSPLSLPVTPGEPASISCQASESLVHSNRNTYLHWYLQKPGQSPQLLIYKVSNRFSGVPDRFSGSGSGTDFTLKISRVEAEDVGVYYCSQNTHVPPTFGQGTKVEIERTVAAPSVFIFPPSDEQLKSGTASVVCLLNNFYPREAKVQWKVDNALQSGNSQESVTEQDSKDSTYSLSSTLTLSKADYEKHKVYACEVTHQGLSSPVTKSFNRGEC | 120 % of control
GpH7-A5/GpH7-B3 variant P238_04F/GpL16-k0 (antibody, human IgG1, kappa, also called He Ab P238_04F) heavy 1: not shown heavy 2: not shown light: DIVMTQSPLSLPVTPGEPASISCQASESLVHSNRNTYLHWYLQKPGQSPQLLIYKVSNRFSGVPDRFSGSGSGTDFTLKISRVEAEDVGVYYCSQNTHVPPTFGQGTKVEIERTVAAPSVFIFPPSDEQLKSGTASVVCLLNNFYPREAKVQWKVDNALQSGNSQESVTEQDSKDSTYSLSSTLTLSKADYEKHKVYACEVTHQGLSSPVTKSFNRGEC | 174 % of control
GpH7-A5/GpH7-B3 variant P238_06M/GpL16-k0 (antibody, human IgG1, kappa, also called He Ab P238_06M) heavy 1: not shown heavy 2: not shown light: DIVMTQSPLSLPVTPGEPASISCQASESLVHSNRNTYLHWYLQKPGQSPQLLIYKVSNRFSGVPDRFSGSGSGTDFTLKISRVEAEDVGVYYCSQNTHVPPTFGQGTKVEIERTVAAPSVFIFPPSDEQLKSGTASVVCLLNNFYPREAKVQWKVDNALQSGNSQESVTEQDSKDSTYSLSSTLTLSKADYEKHKVYACEVTHQGLSSPVTKSFNRGEC | 139 % of control
GpH7-A5/GpH7-B3 variant P238_09D/GpL16-k0 (antibody, human IgG1, kappa, also called He Ab P238_09D) heavy 1: not shown heavy 2: not shown light: DIVMTQSPLSLPVTPGEPASISCQASESLVHSNRNTYLHWYLQKPGQSPQLLIYKVSNRFSGVPDRFSGSGSGTDFTLKISRVEAEDVGVYYCSQNTHVPPTFGQGTKVEIERTVAAPSVFIFPPSDEQLKSGTASVVCLLNNFYPREAKVQWKVDNALQSGNSQESVTEQDSKDSTYSLSSTLTLSKADYEKHKVYACEVTHQGLSSPVTKSFNRGEC | 148 % of control
GpH7-A5/GpH7-B3 variant P271_08L/GpL16-k0 (antibody, human IgG1, kappa, also called He Ab P271_08L) heavy 1: not shown heavy 2: not shown light: DIVMTQSPLSLPVTPGEPASISCQASESLVHSNRNTYLHWYLQKPGQSPQLLIYKVSNRFSGVPDRFSGSGSGTDFTLKISRVEAEDVGVYYCSQNTHVPPTFGQGTKVEIERTVAAPSVFIFPPSDEQLKSGTASVVCLLNNFYPREAKVQWKVDNALQSGNSQESVTEQDSKDSTYSLSSTLTLSKADYEKHKVYACEVTHQGLSSPVTKSFNRGEC | 104 % of control
GpH7-A5/GpH7-B3 variant P331_02A/GpL16-k0 (antibody, human IgG1, kappa, also called He Ab P331_02A) heavy 1: not shown heavy 2: not shown light: DIVMTQSPLSLPVTPGEPASISCQASESLVHSNRNTYLHWYLQKPGQSPQLLIYKVSNRFSGVPDRFSGSGSGTDFTLKISRVEAEDVGVYYCSQNTHVPPTFGQGTKVEIERTVAAPSVFIFPPSDEQLKSGTASVVCLLNNFYPREAKVQWKVDNALQSGNSQESVTEQDSKDSTYSLSSTLTLSKADYEKHKVYACEVTHQGLSSPVTKSFNRGEC | 106 % of control
GpH7-A5/GpH7-B3 variant P331_04F/GpL16-k0 (antibody, human IgG1, kappa, also called He Ab P331_04F) heavy 1: not shown heavy 2: not shown light: DIVMTQSPLSLPVTPGEPASISCQASESLVHSNRNTYLHWYLQKPGQSPQLLIYKVSNRFSGVPDRFSGSGSGTDFTLKISRVEAEDVGVYYCSQNTHVPPTFGQGTKVEIERTVAAPSVFIFPPSDEQLKSGTASVVCLLNNFYPREAKVQWKVDNALQSGNSQESVTEQDSKDSTYSLSSTLTLSKADYEKHKVYACEVTHQGLSSPVTKSFNRGEC | 111 % of control
GpH7-A5/GpH7-B3 variant P331_15Y/GpL16-k0 (antibody, human IgG1, kappa, also called He Ab P331_15Y) heavy 1: not shown heavy 2: not shown light: DIVMTQSPLSLPVTPGEPASISCQASESLVHSNRNTYLHWYLQKPGQSPQLLIYKVSNRFSGVPDRFSGSGSGTDFTLKISRVEAEDVGVYYCSQNTHVPPTFGQGTKVEIERTVAAPSVFIFPPSDEQLKSGTASVVCLLNNFYPREAKVQWKVDNALQSGNSQESVTEQDSKDSTYSLSSTLTLSKADYEKHKVYACEVTHQGLSSPVTKSFNRGEC | 112 % of control
GpH7-A5/GpH7-B3 variant P331_16H/GpL16-k0 (antibody, human IgG1, kappa, also called He Ab P331_16H) heavy 1: not shown heavy 2: not shown light: DIVMTQSPLSLPVTPGEPASISCQASESLVHSNRNTYLHWYLQKPGQSPQLLIYKVSNRFSGVPDRFSGSGSGTDFTLKISRVEAEDVGVYYCSQNTHVPPTFGQGTKVEIERTVAAPSVFIFPPSDEQLKSGTASVVCLLNNFYPREAKVQWKVDNALQSGNSQESVTEQDSKDSTYSLSSTLTLSKADYEKHKVYACEVTHQGLSSPVTKSFNRGEC | 114 % of control
GpH7-A5/GpH7-B3 variant P331_20W/GpL16-k0 (antibody, human IgG1, kappa, also called He Ab P331_20W) heavy 1: not shown heavy 2: not shown light: DIVMTQSPLSLPVTPGEPASISCQASESLVHSNRNTYLHWYLQKPGQSPQLLIYKVSNRFSGVPDRFSGSGSGTDFTLKISRVEAEDVGVYYCSQNTHVPPTFGQGTKVEIERTVAAPSVFIFPPSDEQLKSGTASVVCLLNNFYPREAKVQWKVDNALQSGNSQESVTEQDSKDSTYSLSSTLTLSKADYEKHKVYACEVTHQGLSSPVTKSFNRGEC | 110 % of control
GpH7-A5/GpH7-B3 variant S239_08L/GpL16-k0 (antibody, human IgG1, kappa, also called He Ab S239_08L) heavy 1: not shown heavy 2: not shown light: DIVMTQSPLSLPVTPGEPASISCQASESLVHSNRNTYLHWYLQKPGQSPQLLIYKVSNRFSGVPDRFSGSGSGTDFTLKISRVEAEDVGVYYCSQNTHVPPTFGQGTKVEIERTVAAPSVFIFPPSDEQLKSGTASVVCLLNNFYPREAKVQWKVDNALQSGNSQESVTEQDSKDSTYSLSSTLTLSKADYEKHKVYACEVTHQGLSSPVTKSFNRGEC | 122 % of control
GpH7-A5/GpH7-B3 variant S239_10E/GpL16-k0 (antibody, human IgG1, kappa, also called He Ab S239_10E) heavy 1: not shown heavy 2: not shown light: DIVMTQSPLSLPVTPGEPASISCQASESLVHSNRNTYLHWYLQKPGQSPQLLIYKVSNRFSGVPDRFSGSGSGTDFTLKISRVEAEDVGVYYCSQNTHVPPTFGQGTKVEIERTVAAPSVFIFPPSDEQLKSGTASVVCLLNNFYPREAKVQWKVDNALQSGNSQESVTEQDSKDSTYSLSSTLTLSKADYEKHKVYACEVTHQGLSSPVTKSFNRGEC | 135 % of control
GpH7-A5/GpH7-B3 variant S239_18N/GpL16-k0 (antibody, human IgG1, kappa, also called He Ab S239_18N) heavy 1: not shown heavy 2: not shown light: DIVMTQSPLSLPVTPGEPASISCQASESLVHSNRNTYLHWYLQKPGQSPQLLIYKVSNRFSGVPDRFSGSGSGTDFTLKISRVEAEDVGVYYCSQNTHVPPTFGQGTKVEIERTVAAPSVFIFPPSDEQLKSGTASVVCLLNNFYPREAKVQWKVDNALQSGNSQESVTEQDSKDSTYSLSSTLTLSKADYEKHKVYACEVTHQGLSSPVTKSFNRGEC | 111 % of control
GpH7-A5/GpH7-B3 variant S267_03V/GpL16-k0 (antibody, human IgG1, kappa, also called He Ab S267_03V) heavy 1: not shown heavy 2: not shown light: DIVMTQSPLSLPVTPGEPASISCQASESLVHSNRNTYLHWYLQKPGQSPQLLIYKVSNRFSGVPDRFSGSGSGTDFTLKISRVEAEDVGVYYCSQNTHVPPTFGQGTKVEIERTVAAPSVFIFPPSDEQLKSGTASVVCLLNNFYPREAKVQWKVDNALQSGNSQESVTEQDSKDSTYSLSSTLTLSKADYEKHKVYACEVTHQGLSSPVTKSFNRGEC | 116 % of control

biological target: T1, FcγRIIa R; assay: SPR Biacore; vs GpH7-B3/GpL16-k0 =100
Procedure: Analysis of interaction between objective antibody and the FcγR was carried out using Biacore T100 (GE Healthcare). HBS-EP+ (GE Healthcare) was used as the running buffer, and the measurement temperature was set to 25° C. Chips produced by immobilizing the antigen peptide by the amine coupling method to a Series S Sencor Chip CM5 (GE Healthcare), or alternatively, chips produced by allowing preliminarily biotinylated antigen peptides to interact with and immobilize onto a Series S Sensor Chip SA (certified) (GE Healthcare) were used. Antibodies of interest were captured onto an antigen peptide-immobilized chip, and allowed to interact to each FcγR diluted with running buffer. To regenerate and repeatedly use the chip, the antibodies captured on the chip were washed off by reacting 10 mM glycine-HCl, pH 1.5.
The FcγR-binding activity of each antibody was assessed primarily using as an indicator the FcγR-binding activity and dissociation constant for FcγR.

Binder | Ho/Con_2aR
GpH7-B3 variant N325_06M/GpL16-k0 (antibody, human IgG1, kappa, also called Ho Ab N325_06M) heavy: not shown light: DIVMTQSPLSLPVTPGEPASISCQASESLVHSNRNTYLHWYLQKPGQSPQLLIYKVSNRFSGVPDRFSGSGSGTDFTLKISRVEAEDVGVYYCSQNTHVPPTFGQGTKVEIERTVAAPSVFIFPPSDEQLKSGTASVVCLLNNFYPREAKVQWKVDNALQSGNSQESVTEQDSKDSTYSLSSTLTLSKADYEKHKVYACEVTHQGLSSPVTKSFNRGEC | 124 % of control
GpH7-B3 variant A327_09D/GpL16-k0 (antibody, human IgG1, kappa, also called Ho Ab A327_09D) heavy: not shown light: DIVMTQSPLSLPVTPGEPASISCQASESLVHSNRNTYLHWYLQKPGQSPQLLIYKVSNRFSGVPDRFSGSGSGTDFTLKISRVEAEDVGVYYCSQNTHVPPTFGQGTKVEIERTVAAPSVFIFPPSDEQLKSGTASVVCLLNNFYPREAKVQWKVDNALQSGNSQESVTEQDSKDSTYSLSSTLTLSKADYEKHKVYACEVTHQGLSSPVTKSFNRGEC | 120 % of control
GpH7-B3 variant A327_10E/GpL16-k0 (antibody, human IgG1, kappa, also called Ho Ab A327_10E) heavy: not shown light: DIVMTQSPLSLPVTPGEPASISCQASESLVHSNRNTYLHWYLQKPGQSPQLLIYKVSNRFSGVPDRFSGSGSGTDFTLKISRVEAEDVGVYYCSQNTHVPPTFGQGTKVEIERTVAAPSVFIFPPSDEQLKSGTASVVCLLNNFYPREAKVQWKVDNALQSGNSQESVTEQDSKDSTYSLSSTLTLSKADYEKHKVYACEVTHQGLSSPVTKSFNRGEC | 104 % of control
GpH7-B3 variant A330_01G/GpL16-k0 (antibody, human IgG1, kappa, also called Ho Ab A330_01G) heavy: not shown light: DIVMTQSPLSLPVTPGEPASISCQASESLVHSNRNTYLHWYLQKPGQSPQLLIYKVSNRFSGVPDRFSGSGSGTDFTLKISRVEAEDVGVYYCSQNTHVPPTFGQGTKVEIERTVAAPSVFIFPPSDEQLKSGTASVVCLLNNFYPREAKVQWKVDNALQSGNSQESVTEQDSKDSTYSLSSTLTLSKADYEKHKVYACEVTHQGLSSPVTKSFNRGEC | 106 % of control
GpH7-B3 variant A330_05P/GpL16-k0 (antibody, human IgG1, kappa, also called Ho Ab A330_05P) heavy: not shown light: DIVMTQSPLSLPVTPGEPASISCQASESLVHSNRNTYLHWYLQKPGQSPQLLIYKVSNRFSGVPDRFSGSGSGTDFTLKISRVEAEDVGVYYCSQNTHVPPTFGQGTKVEIERTVAAPSVFIFPPSDEQLKSGTASVVCLLNNFYPREAKVQWKVDNALQSGNSQESVTEQDSKDSTYSLSSTLTLSKADYEKHKVYACEVTHQGLSSPVTKSFNRGEC | 36.2 % of control
